Laboratory results: patent US20260167714A1 (COHERUS BIOSCIENCES, published 2026)

Assays:
[1] = target: T1, recombinant human ILT4 (LILRB2) (human, UniProt Q8N423 22-460); assay: SPR, Biacore T200, mAb captured on anti-Fc, ILT4 injected, medium resolution, 25 C
T1 construct: Bought protein (Acro Biosystems or R&D Systems); also called ILTR4
Method in brief: (§1)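 Mouse, chimeric or humanized mAbs captured on anti-Fc surfaces (CM4 chip); ILT4 injected at 101 to 0.79 nM, 2-fold series, 90 s association, 1200 s dissociation. Run at 25° C in HBS-P+ pH 7.4 with 100 μg/ml BSA; double-referenced global 1:1 fit with mass-transport term, KD=koff/kon.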

[2] = target: T1, recombinant human ILT4 (LILRB2); assay: KinExA, solution equilibrium, n-curve analysis
Description: Kinetic Exclusion Assay (KinExA®) was performed to measure the equilibrium binding affinity and kinetics between human ILT4 and four humanized LALA-Fc modified antibodies in solution. For affinity analysis, the equilibrium dissociation constant, KD, was experimentally determined and reflects the strength of the binding interaction. The rate of association, kₒₙ, was also experimentally determined, while the rate of dissociation, koff, is calculated based on the following equation: koff=KD×kₒₙ
The binding affinity (KD), association (kₒₙ), and dissociation rate constants (koff) were measured for 4 different Humanized LALA IgG antibodies to ILT4 using KinExA. An n-curve analysis of at least two different curves, run at two different CBP concentrations, was used to determine the KD of the interactions The ILT4 was used as the concentration reference for all curves. All of the binding systems have low error and well defined 95% confidence intervals giving confidence to the measurements: […]

[3] = target: T1, recombinant human ILT4 (LILRB2); assay: SPR, Biacore T200, medium resolution; koff held at its limit of 4.27e-5 s^-1
Method in brief: as §1

LILRA6 = target: T2, LILRA6 (human, UniProt Q6PI73 24-447); assay: SPR, Biacore 8K, mAb captured on anti-human Fc, analyte injected
T2 construct: Bought protein; limits of the extracellular domain are marked by bold type not visible here; whole entry named; also called recombinant human LILRA6
Description: (§2) SPR was used to determine the specificity of four humanized anti-ILT4 mAbs for binding to LILRB2 and to determine any cross-reactivity with nine other LILRA and LILRB family members. LILR proteins were purchased from Acro Biosystems or R&D Systems, with sequence provided below. The studies were performed with a Biacore 8K instrument using a CM4 sensor chip with a running buffer of HBS-P+, 100 μg/mL BSA. Anti-human Fc specific capture surfaces were prepared using standard amine coupling chemistry. MAb was captured to flow cell 2 with flow cell 1 serving as the reference flow cell. Each of the nine family members and LILRB2 were injected at 100 nM at 30 μL/min for 90 sec with 240 sec of dissociation. […] All sensorgrams were doubled-referenced during processing of the data.

LILRA4 = target: T3, LILRA4 (human, UniProt P59901 24-446); assay: as above
T3 construct: Bought protein; limits of the extracellular domain are marked by bold type not visible here; whole entry named; also called recombinant human LILRA4
Description: as §2

LILRA2 = target: T4, LILRA2 (human, UniProt Q8N149 24-449); assay: as above
T4 construct: Bought protein; limits of the extracellular domain are marked by bold type not visible here; whole entry named; also called recombinant human LILRA2
Description: as §2

LILRB4 = target: T5, LILRB4 (human, UniProt Q8NHJ6 22-259); assay: as above
T5 construct: Bought protein; limits of the extracellular domain are marked by bold type not visible here; whole entry named; also called recombinant human LILRB4; ILT3
Description: as §2

LILRB3 = target: T6, LILRB3 (human, UniProt O75022 24-443); assay: as above
T6 construct: Bought protein; limits of the extracellular domain are marked by bold type not visible here; whole entry named; also called recombinant human LILRB3; ILT5
Description: as §2

LILRA5 = target: T7, LILRA5 (human, UniProt A6NI73 42-268); assay: as above
T7 construct: Bought protein; limits of the extracellular domain are marked by bold type not visible here; whole entry named; also called recombinant human LILRA5
Description: as §2

LILRA3 [4] = target: T8, LILRA3 (human, UniProt Q8N6C8 24-439); assay: SPR, Biacore 8K cross-reactivity study, single concentration 100 nM; lower end of the range 600-700 nM
T8 construct: Bought protein; limits of the part used are marked by bold type not visible here; whole entry named; also called recombinant human LILRA3
Description: as §2

LILRA3 [5] = target: T8, LILRA3; assay: SPR, Biacore 8K cross-reactivity study, single concentration 100 nM; upper end of the range 600-700 nM
Description: as §2

[6] = target: T1, recombinant human ILT4 (LILRB2); assay: SPR, Biacore 8K, mAb captured on anti-human Fc, LILRB2 at 100 nM; legend: ++++ tight binding (<100 pM KD)
Description: as §2

LILRA3 [7] = target: T8, LILRA3; assay: SPR, Biacore 8K, mAb captured on anti-human Fc, LILRA3 at 100 nM; legend: + weak binding (~600-700 nM KD)
Description: as §2

[8] = target: T1, recombinant human ILT4 (LILRB2); assay: SPR, high resolution kinetics, triplicate, LALA antibody; 95% CI in parentheses
LILRA1 = target: T9, LILRA1 (human, UniProt O75019 17-461); assay: SPR, Biacore 8K cross-reactivity study
T9 construct: Bought protein; limits of the extracellular domain are marked by bold type not visible here; whole entry named; also called recombinant human LILRA1
Description: as §2

[9] = target: T1, recombinant human ILT4 (LILRB2); assay: SPR, high resolution kinetics, triplicate, LALA antibody
[10] = target: T10, human ILT4 expressed on cells (human, UniProt Q8N423 22-597); assay: flow based HLA-G blocking assay
T10 construct: whole, on cells; The same entry is used for endogenous ILT4 of human macrophages; also called CHO-S/ILT4 cells; ILT4-CHO cells
T10 sequence (Q8N423 22-597): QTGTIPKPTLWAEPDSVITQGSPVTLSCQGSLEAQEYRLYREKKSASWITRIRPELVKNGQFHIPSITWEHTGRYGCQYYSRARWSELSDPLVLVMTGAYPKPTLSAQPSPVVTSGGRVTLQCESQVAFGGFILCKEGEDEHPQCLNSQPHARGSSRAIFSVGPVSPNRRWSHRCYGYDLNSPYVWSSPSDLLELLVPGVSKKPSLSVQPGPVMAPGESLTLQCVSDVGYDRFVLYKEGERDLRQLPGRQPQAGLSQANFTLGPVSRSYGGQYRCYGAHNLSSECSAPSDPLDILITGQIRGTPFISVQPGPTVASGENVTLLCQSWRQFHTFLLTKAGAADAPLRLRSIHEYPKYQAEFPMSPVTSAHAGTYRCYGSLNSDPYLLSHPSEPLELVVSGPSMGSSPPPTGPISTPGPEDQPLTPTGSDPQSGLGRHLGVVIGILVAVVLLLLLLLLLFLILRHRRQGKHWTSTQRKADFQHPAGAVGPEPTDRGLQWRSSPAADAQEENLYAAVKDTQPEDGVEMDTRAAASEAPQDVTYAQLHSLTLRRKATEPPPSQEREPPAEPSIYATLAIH

T8 sequence (Q8N6C8 24-439 A105V limits assumed): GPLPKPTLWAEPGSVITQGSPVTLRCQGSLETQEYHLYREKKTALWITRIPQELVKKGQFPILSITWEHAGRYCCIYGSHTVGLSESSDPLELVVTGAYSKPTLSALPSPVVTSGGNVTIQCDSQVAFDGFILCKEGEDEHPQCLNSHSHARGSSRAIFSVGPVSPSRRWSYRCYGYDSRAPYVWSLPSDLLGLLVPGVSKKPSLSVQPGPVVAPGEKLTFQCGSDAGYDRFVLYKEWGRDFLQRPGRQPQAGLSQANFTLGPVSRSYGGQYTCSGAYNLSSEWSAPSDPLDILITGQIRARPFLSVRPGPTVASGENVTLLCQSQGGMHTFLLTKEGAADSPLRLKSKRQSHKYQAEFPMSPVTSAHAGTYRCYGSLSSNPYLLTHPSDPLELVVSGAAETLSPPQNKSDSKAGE
T1 sequence (Q8N423 other isoform, or with tags, fused parts or gaps limits assumed): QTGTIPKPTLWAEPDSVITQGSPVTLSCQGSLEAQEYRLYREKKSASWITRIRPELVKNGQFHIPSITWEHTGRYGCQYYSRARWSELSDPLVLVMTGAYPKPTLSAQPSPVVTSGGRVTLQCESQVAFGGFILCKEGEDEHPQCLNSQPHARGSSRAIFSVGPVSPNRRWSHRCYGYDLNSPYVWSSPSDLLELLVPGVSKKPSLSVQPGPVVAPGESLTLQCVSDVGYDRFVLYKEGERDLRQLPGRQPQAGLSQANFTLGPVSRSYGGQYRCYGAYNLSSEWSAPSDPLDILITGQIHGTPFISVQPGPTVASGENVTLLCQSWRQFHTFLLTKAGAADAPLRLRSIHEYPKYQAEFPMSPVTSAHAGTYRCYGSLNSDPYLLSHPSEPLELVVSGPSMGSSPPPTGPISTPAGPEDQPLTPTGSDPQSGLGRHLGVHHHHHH
T3 sequence (P59901 other isoform, or with tags, fused parts or gaps): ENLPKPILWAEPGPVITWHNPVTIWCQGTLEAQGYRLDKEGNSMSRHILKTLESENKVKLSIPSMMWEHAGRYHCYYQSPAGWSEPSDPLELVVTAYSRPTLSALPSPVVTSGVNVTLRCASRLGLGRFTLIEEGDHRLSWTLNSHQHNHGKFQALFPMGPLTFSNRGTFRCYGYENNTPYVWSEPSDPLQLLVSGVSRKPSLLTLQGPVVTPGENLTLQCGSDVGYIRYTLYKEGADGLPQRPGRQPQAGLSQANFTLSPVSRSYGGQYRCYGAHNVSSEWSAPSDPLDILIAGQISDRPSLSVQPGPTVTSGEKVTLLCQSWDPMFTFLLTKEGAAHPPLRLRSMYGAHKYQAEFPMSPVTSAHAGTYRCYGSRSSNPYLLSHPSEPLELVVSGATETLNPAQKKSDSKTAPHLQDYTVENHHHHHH
T5 sequence (Q8NHJ6 other isoform, or with tags, fused parts or gaps): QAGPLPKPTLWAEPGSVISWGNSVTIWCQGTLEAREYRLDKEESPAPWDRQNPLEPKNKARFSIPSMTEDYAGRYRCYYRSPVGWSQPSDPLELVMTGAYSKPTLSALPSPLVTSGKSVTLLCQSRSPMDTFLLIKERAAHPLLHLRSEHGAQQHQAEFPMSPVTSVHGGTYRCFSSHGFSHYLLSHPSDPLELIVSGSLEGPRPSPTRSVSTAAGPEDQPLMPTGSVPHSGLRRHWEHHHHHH
T6 sequence (O75022 other isoform, or with tags, fused parts or gaps): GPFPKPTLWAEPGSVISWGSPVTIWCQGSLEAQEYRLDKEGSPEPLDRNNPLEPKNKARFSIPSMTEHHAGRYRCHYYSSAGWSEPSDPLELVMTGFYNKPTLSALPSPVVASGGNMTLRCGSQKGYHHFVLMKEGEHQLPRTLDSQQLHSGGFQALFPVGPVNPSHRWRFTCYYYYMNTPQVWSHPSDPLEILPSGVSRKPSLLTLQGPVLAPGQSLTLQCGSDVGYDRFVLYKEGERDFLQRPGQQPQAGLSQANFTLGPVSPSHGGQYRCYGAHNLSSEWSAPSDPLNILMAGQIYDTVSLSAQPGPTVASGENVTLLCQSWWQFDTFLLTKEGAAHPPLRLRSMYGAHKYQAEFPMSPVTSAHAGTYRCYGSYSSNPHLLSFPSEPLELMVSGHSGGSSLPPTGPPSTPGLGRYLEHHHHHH
T4 sequence (Q8N149 other isoform, or with tags, fused parts or gaps): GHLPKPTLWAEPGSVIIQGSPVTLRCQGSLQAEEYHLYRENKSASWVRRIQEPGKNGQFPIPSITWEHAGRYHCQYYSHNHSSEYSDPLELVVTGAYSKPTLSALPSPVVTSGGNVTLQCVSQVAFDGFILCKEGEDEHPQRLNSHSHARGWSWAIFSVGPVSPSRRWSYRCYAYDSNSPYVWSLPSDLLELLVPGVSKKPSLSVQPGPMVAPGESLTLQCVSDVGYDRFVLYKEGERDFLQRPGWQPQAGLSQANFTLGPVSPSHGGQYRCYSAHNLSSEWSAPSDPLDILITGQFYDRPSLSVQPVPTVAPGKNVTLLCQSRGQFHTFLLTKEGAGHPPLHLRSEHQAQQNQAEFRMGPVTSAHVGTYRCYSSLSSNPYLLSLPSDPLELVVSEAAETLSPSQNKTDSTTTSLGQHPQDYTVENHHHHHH
T7 sequence (A6NI73 other isoform, or with tags, fused parts or gaps): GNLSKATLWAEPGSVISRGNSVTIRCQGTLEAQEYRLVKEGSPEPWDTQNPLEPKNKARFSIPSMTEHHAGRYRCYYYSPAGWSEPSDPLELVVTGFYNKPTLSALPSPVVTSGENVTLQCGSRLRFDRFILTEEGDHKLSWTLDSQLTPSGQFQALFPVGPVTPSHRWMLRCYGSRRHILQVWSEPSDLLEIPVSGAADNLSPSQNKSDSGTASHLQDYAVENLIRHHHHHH
T2 sequence (Q6PI73 other isoform, or with tags, fused parts or gaps): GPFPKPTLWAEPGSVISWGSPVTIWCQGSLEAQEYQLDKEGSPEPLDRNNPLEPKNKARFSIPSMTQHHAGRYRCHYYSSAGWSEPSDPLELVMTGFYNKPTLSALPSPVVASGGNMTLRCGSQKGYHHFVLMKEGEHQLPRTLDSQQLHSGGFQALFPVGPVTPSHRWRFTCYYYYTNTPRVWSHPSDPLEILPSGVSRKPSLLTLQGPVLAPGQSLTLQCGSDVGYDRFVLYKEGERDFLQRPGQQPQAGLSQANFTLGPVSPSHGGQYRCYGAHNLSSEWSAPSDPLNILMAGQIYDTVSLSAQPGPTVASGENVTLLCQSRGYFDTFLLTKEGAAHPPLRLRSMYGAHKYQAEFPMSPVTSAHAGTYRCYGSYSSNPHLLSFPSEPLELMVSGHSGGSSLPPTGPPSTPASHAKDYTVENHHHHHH
T9 sequence (O75019 other isoform, or with tags, fused parts or gaps): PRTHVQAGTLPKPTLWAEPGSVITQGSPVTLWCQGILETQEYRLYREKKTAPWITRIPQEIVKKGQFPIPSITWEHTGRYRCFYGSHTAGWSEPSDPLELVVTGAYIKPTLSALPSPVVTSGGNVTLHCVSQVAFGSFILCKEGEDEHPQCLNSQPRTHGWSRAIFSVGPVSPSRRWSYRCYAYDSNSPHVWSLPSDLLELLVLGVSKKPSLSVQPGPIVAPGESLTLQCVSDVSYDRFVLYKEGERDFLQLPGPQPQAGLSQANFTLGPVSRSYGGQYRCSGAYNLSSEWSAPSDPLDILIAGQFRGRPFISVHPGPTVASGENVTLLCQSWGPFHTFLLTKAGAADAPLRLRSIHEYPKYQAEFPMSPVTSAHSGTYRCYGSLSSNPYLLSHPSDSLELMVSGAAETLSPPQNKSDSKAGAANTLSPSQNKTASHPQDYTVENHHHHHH

B1: Hz180-LALA (antibody, human IgG1, kappa, L234A L235A, V domains shown)
VH: QVQLVQSGAEVKKPGSSVKVSCKASGYSFIGYFMNWMRQAPGQGLEWIGRINPYNGDIFYNQKFKGRVTITVDKSTSTAYMELSSLRSEDTAVYYCARGITVAAGSFDVWGQGTTVTVSS
VL: DIVMTQSPDSLAVSLGERATINCRASESVDNYGNTFMHWYQQKPGQPPKLLIYRASNLESGIPDRFSGSGSGTDFTLTISSLQAEDVAVYYCQQSSDHPLTFGGGTKVEIKR
notes: Humanized L180S4, human IgG1 L234A/L235A, kappa; also called Humanized 180_04; Hz 180 04
kon [1]: 812000 M⁻¹ s⁻¹
Kd [2]: 0.000759 nM
Kd [3]: ≤ 0.053 nM
koff [3]: ≤ 4.27e-05 s⁻¹
binding result (LILRA6): no binding (tested: 100 nM)
binding result (LILRA4): no binding (tested: 100 nM)
binding result (LILRA2): no binding (tested: 100 nM)
binding result (LILRB4): no binding (tested: 100 nM)
binding result (LILRB3): no binding (tested: 100 nM)
binding result (LILRA5): no binding (tested: 100 nM)
Kd (LILRA3 [4]): 600 to 700 nM
Kd (LILRA3 [5]): 600 to 700 nM
KD [6]: < 0.1 nM
KD (LILRA3 [7]): 600 to 700 nM
kon [8]: 3.95e+06 M⁻¹ s⁻¹
binding result (LILRA1): binds
Kd [9]: 0.0016 nM
koff [9]: 6.3e-06 s⁻¹
IC50 [10]: 0.051 µg/mL
